According to the nanobody polyreactivity screen of Harvey et al. (2022):

Experiment: yeast display, Sf9 membrane polyspecificity reagent, FACS + sequencing; frameworks hold sequencing errors
Procedure, shortened: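 Using colony PCR, genes from sorted yeast display clones were amplified, then sequenced on MiSeq at 2 × 250 and filtered by CDR length. The clones had been stained with 10% biotinylated, detergent-solubilized Sf9 membrane reagent for 1 hour at 4 °C and sorted by FACS into low and high (top ~1%) gates on anti-HA and streptavidin fluorescence. Polyreactivity labels come from the gate of origin.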

| Sequence | polyreactivity (PSR sort gate) |
| --- | --- |
| QVQLVESGGGLVQAGGSLRLSCAAYGRILYYYAMGWYRQAPGKETELVAAITETSGSTYYADSVKGRFTISRDNAKTTVYLQMNSLHPEDTAVYYCAASSTRGHYTAYDYWGQGTHVTVSS | low polyreactivity |
| QVQLVESGGGLVQAGGSLRLSCAAYGRTFLFYAMGWYIQAPGKERELVAAITRSDGSTYYADSVKGRFTISRDNAKNTVYLQMNSLKPEDTAVYYCAAEYVSILRDYDYWGQGTQVTVSS | low polyreactivity |
| QVQLVESGGGLVQAGGSLRLSCAAYGSIFEGNPMGWYRQAPGKERELVASISGDGSTNYADSVKGRFTISRDNAKNTVYLQMNSLKPEDTAVYYCNADTISEPGFHMDYWGQGTQVTVSS | low polyreactivity |
| QVQLVESGGGLVQAGGSLRLSCAAYGSIFIYAMGGYRQAPGKVRELVAAISSSGGSTYYADSVKGRFTISRDNAKNTVYLQMNSLKPEDTAVYYCAARYTYSGDKGYYWGQGTQVTVSS | high polyreactivity |
| QVQLVESGGGLVQAGGSLRLSCAAYGSIFKWYTMGWYRQAPGKERELVADINWNGGRTYYADSVKGRFTISRDYAKNTVYLQMNSLKPEDTAVFDCAASRGDYWGQGTQVTVSS | high polyreactivity |
| QVQLVESGGGLVQAGGSLRLSCAAYGSNFYLYAMGWYRQAPGKERELVAAITRGGTTNYADSVKGRFTISRDNAKNTVYLQMNSLKPEDTAVYYCAKEVTTLLSLYEIVDRDYWGQGTQVTVSS | low polyreactivity |
| QVQLVESGGGLVQAGGSLRLSCAAYGSTFCVYAMGWYRQAQGKERELVAAINFSGRTYYADSVKVRFSISRDNAKNTVYVQMNSLKPEDTAVYYCAARIIFEDVGTKYYYWGQGTHVTVSS | high polyreactivity |
| QVQLVESGGGLVQAGGSLRLSCAAYGSTFQPYAMGWYRPATGKEREFVATISGSAGSTYYADSVKGRFKISRDNAKNTVYLQMNSLKPEDTAVDYCNADSGWFGYDYWGQGTQVTVSS | low polyreactivity |
| QVQLVESGGGLVQAGGSLRLSCAAYGSTFRYYAMGWYRQAPGKERELVAAITSSGGSTYYADSVKGRFTISRDNAKNTVFLQMNSLKPEDTAVYYCAVAVKNWVKLNYWGQGSQVTVSS | high polyreactivity |
| QVQLVESGGGLVQAGGSLRLSCAAYGSTFRYYTMGWYRQAPGKERELVAAISGSGGITYYADSLKGRFTISRDNAKNTVYLQMNSLKPEDTAVYYCAAESRYYPYWGQSVQYDYWGQGTQVTVSS | high polyreactivity |
| QVQLVESGGGLVQAGGSLRLSCAAYGSTFSTYAMGWYRQAPGKEREMVAAITLSSGRTTYADSVKGRFTISRDNAKNTVYLQMNSLKPEDTAVYYCNAYYGAAFTYWDYYWGQGTQVTVSS | low polyreactivity |
| QVQLVESGGGLVQAGGSLRLSCAAYGSTFVLYGMGWYRQAPGKEWELVAAISTSGGRTYYADSEKGRFTISRDNAKNSVSLQMNSLKPEDTAVYYCAALTYVAHYDEYWGQGTQVTVSS | low polyreactivity |
| QVQLVESGGGLVQAGGSLRLSCAAYGSTFWPYAKGWSRQAPGKERELVAAISSSGGSTYYADSVKGRFTISRDNAKHTVYLQMNSLIPEDTAVYYCNIDYHRPYGGGSKGDFWGQGTQVTVSS | low polyreactivity |
| QVQLVESGGGLVQAGGSLRLSCAAYGSTYGTNALGWYRQAPGKERELVAAITSRVGRTYYADSVKGRFTISRDNAKNTVYLQMNSLKPEDTAVYYCAASRLVRYQSRYGSWGQGTQVTVSS | high polyreactivity |
| QVQLVESGGGLVQAGGSLRLSCAAYGTIFFSYSMGWYRQAPGKERELVADIRSSDDDTYYADSVKGRFTISRDNAKNTGYLQMNSMKPEDTAVYYCNADFGYWWDGRRYDYWGQGTQVTVSS | low polyreactivity |
| QVQLVESGGGLVQAGGSLRLSCAAYGYTFDSYTIGWYRQAPGKERELVAAITRSGSSTYYADSVKGRFTISRDNAKNTVYLQMNSLKPDDTAVYSCAAGWRRADGIEYWYGYWGQGTQVTVSS | high polyreactivity |
| QVQLVESGGGLVQAGGSLRLSCADSARIFSFNTMGWYRQAPGKETELVAAISYRGRTYYADSVKGRFTISRDNAKKTVYLQMNSLKPEDTAVYYCIAVYGYWYGSWGQGTQVTVSS | high polyreactivity |
| QVQLVESGGGLVQAGGSLRLSCADSGFIFATNAMGWYRQAPGKERDFVAAITSGGSTYYADSVKGRFTISRDNAKNTVYLQMNSLKPEDTAVYYCNARTYSRVTRQTYRYRPYDYWGQGTQVSVSS | high polyreactivity |
| QVQLVESGGGLVQAGGSLRLSCADSGFIFGYYAKGWYRQAPGKERELVADISRGGNTNYADSVKGRFTISRDNAKNTVYLQMNSLKPEDTAVYYCARYRRGKMDYCGQGTQVTVSS | high polyreactivity |
| QVQLVESGGGLVQAGGSLRLSCADSGFIFTAYAMGWYRQAPGKERELVAAISRSGGRTYYADSVKGRFTISRDNAKNTVYLQMNSLKPEDTAVYYCNADFHSGGGYWGQGTQVTLSS | high polyreactivity |
| QVQLVESGGGLVQAGGSLRLSCADSGFIFTVNAMGWYRQAPGKERELVAAITSGGNTYYADSVKGRFTISRDNAKNTVYLQMNSLKPEDAAVYYCNAVFYTWSPYGTTVRSYGYWGQGTQVTVSS | high polyreactivity |

| Sequence | polyreactivity (PSR sort gate) |
| --- | --- |
| QVQLVESGGGLVQAGGSLRLSCADSGFSIWWYDMGWYRQAPGKERELVAAITADGGDTYYADSVKGRFTISRDYANHTDYLQMNSLKPEDTAVYYCAAEYDVYGYYYWGQGTQVTVSS | high polyreactivity |
| QVQLVESGGGLVQAGGSLRLSCADSGFTFLSNVMGWYRQAPGKERELDAAINYSGDGTYYADSVKGRFTISRDNAKNTVYLQMNSLKPEDSAVYYCAADVEYYRDVPPQVYVSDDYWGQGTQVTVSS | low polyreactivity |
| QVQLVESGGGLVQAGGSLRLSCADSGFTFSWYTMGWYRQAPGKERELVASITVSGGSTYYADSVKGRFTISRDNAKNTVYLQMNSLKPEDTAVYYCNAQDPFTYYSSSPTYDYWGQGTQVTVSS | low polyreactivity |
| QVQLVESGGGLVQAGGSLRLSCADSGFTFTYYDMGWYRQAPGKERELVAAISSGGSTNYADSVKGRFTISRDNAKNTVYLQMNSLKPEDTAVYYCAASITHYWYGYWGQGTQVTVSS | high polyreactivity |
| QVQLVESGGGLVQAGGSLRLSCADSGGIFDWNDMGWYRHEPGKESELVAAITSGGVTYYADSVKGRFTISRDNAKNTVYLQMNSLIPDDTSVFYCATGYWGLWYGYDSWGQGTQVTVSS | low polyreactivity |
| QVQLVESGGGLVQAGGSLRLSCADSGGIFNTYAMGWYRQAPGKEREFVAAISRRGGGTYYADSVKGRFTISRDNAKNTVYLQMNSLKPEDTAVYYCAAKRFHEHGYWGQGTQVTVSS | high polyreactivity |
| QVQLVESGGGLVQAGGSLRLSCADSGGILFNYDMGWYRPAPGKERELVAAISRRGGTTYYADSVKGRFTISRDNAKNTVYLQMNSLKPEDTAVYYCAAYIYYSYYARVGYGDGNGYDYWGQGTQVTVSS | high polyreactivity |
| QVQLVESGGGLVQAGGSLRLSCADSGITFDANTMGWYRQAPGKERELVAVITDTGSTNYADSVKGRFTISRDNAKNTVYLQMNSLKPEDTAVYYCNADAEPSSGTSANNDYWGQGTQVTVSS | low polyreactivity |
| QVQLVESGGGLVQAGGSLRLSCADSGITLQSYAMGWYRQAPGKERELVAAITSGSSTHYADSVKGRFTISRYNAKYTVYLQMYSLKPEDTAVYYCAADRVYFGDLFVVYYFIQYDFWGQGTQVTVSS | low polyreactivity |
| QVQLVESGGGLVQAGGSLRLSCADSGLIFTANDRGWYRQAPGKERELVADISKSGSSTYYADSVKGRFTISRDNAKNTVYLQMNSLKPEDTAVYYCNADYLTYFTTFDYWGQGTQVTVSS | low polyreactivity |
| QVQLVESGGGLVQAGGSLRLSCADSGLTFGRNAMGWYRHAPGKERELVAAITFNGGSTYYADSVKGRFTISRDNAKNTVYLQMNSLKPEDTAVYYCSGRLWRRSRFDYWGQGTQVTVSS | high polyreactivity |
| QVQLVESGGGLVQAGGSLRLSCADSGLTFIYYAMGWYRQAHGKERELVAAISSSGGRTYYADSVKGRFTISRDNAKNTVYLQMNSLKPEDTAVYYCATRYWTQSSSFDYWGQGTQVTVSS | high polyreactivity |
| QVQLVESGGGLVQAGGSLRLSCADSGLTFWVYAMGWYRQAPGKERELVAAISSGGSTNYADSVKGRFTISRDNAKNTVYVQMNSLKPEDTAVYYCAAEWVYWQDELWDSPGLVEFDYWGQGTQVTVSS | low polyreactivity |
| QVQLVESGGGLVQAGGSLRLSCADSGNIFSTYAMGWYRQEPGKERELVASISENGGSTYYADSVKGRFTISRDNAKNTVYLQMNCLKPEDTAVYYCAIGPLYSLFFQHDAPYRYGYWGQGTQVTVSS | low polyreactivity |
| QVQLVESGGGLVQAGGSLRLSCADSGRIFGYYTMGWSRQAPGKERELVAAITSSGSSTYYADSVKGRFTISRDNAKNTVYLQMNSLKPEDTAVYYCNARAYWRNEYWGQGTQVTVSS | high polyreactivity |
| QVQLVESGGGLVQAGGSLRLSCADSGRIFQPNVMGWYRQAPGKERELVAAIRSGSSTYYADSVKGRFTISRDNAKNTVYLQMNSLKPEDTAVYYCATRRAGRGYDYWGQGTQVTVSS | high polyreactivity |
| QVQLVESGGGLVQAGGSLRLSCADSGRIFRGNTMGWYRQAPGKERELVATINGRGGSTYYADSVKGRFTISRDNAKNTLYLQMNSLKPEDTAVYYCAARARTTRSATYDYWGQGTQVTVSS | high polyreactivity |
| QVQLVESGGGLVQAGGSLRLSCADSGRIFTSYVMGWYRPAPGQERELVAAITRSGGSTYYADSVKGRFTNSRDNAKNTVYLQMNSLKPEDTAVYYCIALTRRQKGGEGGGYWGQGTQVTVSS | high polyreactivity |
| QVQLVESGGGLVQAGGSLRLSCADSGRIFYRYAMGWYRQAPGKERELVAAITNSGGRTYYADSVKGRFTISRDNAKNTVYLQMNSVKPEDSAVYYCNAVKTSEYDYWGQGTQVTVSS | high polyreactivity |
| QVQLVESGGGLVQAGGSLRLSCADSGRIFYYYTMGWYRQAPGKERELVARINSSGSTNLRRLCEGALHNFTRQCEEYRLFTDEQPETGRYRVYYCNADTKRSSREYDYWGQGTQVTVSS | low polyreactivity |
